Test: In vivo epifluorescent imaging of labelled C3a after intranasal administration
Set-up: species or system mouse
Description: C3a (Complement Technologies) was labelled with VivoTag XL 680 fluorescent tag (Perkin Elmer) and purified according to manufacturer's instructions. A minimum of 10 μg of labelled C3a (0.4 mg/kg of body weight) was determined in a pilot experiment to be necessary for reliable detection of the fluorescent signal in live animals due to its significant attenuation by skull bones. Mice received 20 μl of PBS or 65 μM C3a-VivoTag (0.48 mg/kg of body weight) intranasally as described above. One and three hours later, mice were anesthetized with 2% isoflurane and imaged in the IVIS Lumina III Bio-imaging platform (Caliper Technologies). After imaging, mice were deeply anesthetized with isoflurane and killed by cervical dislocation for ex vivo imaging. Brains were quickly dissected from the skull and imaged using the same fluorescent filter sets. All mice and brains were imaged simultaneously with the PBS-treated control (acting as the tissue autofluorescence reference) placed in the middle, to minimize the potential confound of weaker illumination toward the sides of the observation field. Acquired images were processed and analysed using Living Image software (Caliper Technologies). Epifluorescent signal intensities are presented as radiant efficiency [(photons/sec/cm^2/sr)/(μW/cm^2)] after subtraction of the residual tissue autofluorescence signal defined by the PBS control.

fluorescently labelled C3a: C3a (Complement Technologies) labelled with VivoTag XL 680 fluorescent tag
time C3a is detectable in brain tissue after intranasal administration (20 μl of 65 μM C3a-VivoTag (0.48 mg/kg) intranasal, imaged at 1 and 3 h, live and ex vivo): at least 3 hours
delivery to the brain by intranasal administration (epifluorescent imaging in live animals): can be delivered to the mouse brain through intranasal administration
